In patent US20230131339A1, “EPI-X4 BASED PEPTIDES AND DERIVATIVES THEREOF” (Universitaet Ulm, priority 2020, published 2023):
Where a SMILES comes first, the peptide text is derived from it. Where no end group is shown, it is not given here. Side-chain parts run from the residue outwards. [ ]: non-standard residue; d: D form. The star is where a group is joined. DOTA = O=C(O)CN1CCN(CC(=O)O)CCN(CC(=O)*)CCN(CC(=O)O)CC1; Stearoyl = CCCCCCCCCCCCCCCCCC(=O)*; Palmitoyl = CCCCCCCCCCCCCCCC(=O)*; Glu = glutamate linker

Experiments:
[1] = tested on: CXCL12 induced migration of T-cells; experiment: Migration assay (transwell, Jurkat cells); type: cell-based; conditions: 30 nM peptide
[2] = s9, 8 h
Experimental: Further, the stability of peptides in human S9 liver fractions (in the presence of cofactors) was tested (FIG. 12). […] To simulate and predict hepatic metabolic clearance, peptides were added to human S9 liver fractions. […] For each peptide, three independent experiments were performed.
Stability assay in human S9 liver fractions. Pooled human liver S9 fractions were obtained from Thermo Fisher Scientific at a total protein concentration of 20 mg/ml. Fractions were stored in 25 μl aliquots at −80° C. For stability experiments, they were diluted to a final concentration of 0.5 mg/ml in Tris buffer. Cofactors (or buffer) were added immediately before start of the experiment (NADPH: 1 mM, UDPGA: 0.5 mM, GSH: 2.5 mM, PAPS: 0.05 mg/ml, Sigma Aldrich). The reaction was started by adding peptides or compounds at a concentration of 20 μM to the mixture and gentle agitation at 37° C. Determination of enzymatic stability was performed as described for plasma.

[3] = mouse, in vivo, iv
Text: To do so, the labeled conjugate was intravenously injected into the tail vein of immunodeficient mice, followed by localization and quantification of radioactivity within the body using positron emission tomography (PET).

[4] = Small animal SPECT/CT and PET/CT imaging (total body distribution); type: in vivo, Balb/c mice; conditions: ^68Ga-labeled, tail vein, 1 h p.i.
Experimental: SPECT/CT: The total body distribution of [^177Lu]Lu-Pentixather was compared to [^177Lu]Lu-DOTA-K-JM #173 and [^177Lu]Lu-DOTA-K-JM #235. Healthy Balb/c mice were injected into the tail vein with 15-20 MBq ([…]) of ^177Lu-labeled complexes and SPECT/CT images was acquired 4 h post injection (p.i.). For acquiring the images, mice were euthanized by CO2 inhalation after 4 hours, measured in a suitable dose calibrator and imaged supine, head first, using a SPECT/CT system dedicated to imaging small animals (NanoSPECT/CTTM Bioscan Inc.). The images were reconstructed using proprietary HiSPECT iterative reconstruction and fused with CT images using proprietary InVivoScope (Bioscan) software.
PET/CT: PET/CT imaging was performed to determine and compare the total body distribution of [^68Ga]Ga-Pentixather with [^68Ga]Ga-DOTA-K-JM #173. Healthy Balb/c mice were injected into the tail vein with 5-6 MBq ([…]) of ^68Ga-labeled complexes and PET/CT images were acquired 1 h p.i. For acquiring the images, mice were euthanized by CO2 inhalation after 1 h, measured in a suitable dose calibrator and imaged supine, head first, using a PET/CT system dedicated to imaging small animals (Molecubes). The images were reconstructed using the Molecubes software and fused with CT images using Vivo Quant. […]

[5] = molecular target: T1, CXCR4 (Homo sapiens, UniProt P61073); experiment: 12G5-assay | IC50 (nM)
T1 construct: endogenous in cells; host or cells: SupT1 cells
Text: (§1) Table printed on a drawing sheet, Figure 2
Title: A Truncated Palmitoylated-JM#21
Head of the field: 12G5-assay | IC50 (nM)
First copying reader's note: The table is the legend of the plot in panel A; the first column also carries the plot symbols, which are not copied.
Where the first naming reader finds the target: passage: Values determined by the competition assay represent the potency of a compound to compete with an antibody that specifically binds to the binding pocket (ECL2) of CXCR4

[6] = molecular target: T1, CXCR4; experiment: 12G5-assay IC50 (nM)
Text: as §1
Title: B Truncated Palmitoylated-JM#21 N-terminally modified
Head of the field: 12G5-assay IC50 (nM)
First copying reader's note: The table doubles as the legend of the antibody competition plot beside it; the plot symbols before the names are not copied.
Where the first naming reader finds the target: passage: compete with an antibody that specifically binds to the binding pocket (ECL2) of CXCR4

[7] = mouse, in vivo, iv; remark: listed apart in the source
Experimental: Peptides were injected into the tail vein of mice. 4 hours post injection, mice were sacrificed and blood taken by heart punctation. Plasma was obtained by centrifugation and tested for remaining activity in antibody competition assay. As control, peptide was spiked into native plasma (ex vivo). IC50 values were determined by non-linear regression assuming 1.8 ml in vivo blood volume. Remaining activity was determined by IC50 (ex vivo)/IC50 (in vivo)×100. The tested peptides included JM #143 (SEQ ID NO.: 54), JM #144 (SEQ ID NO.: 55), JM #192 (SEQ ID NO.: 89), JM #180 (SEQ ID NO.: 77), JM #194 (SEQ ID NO.: 91), JM #235 (SEQ ID NO.: 130), JM #198 (SEQ ID NO.: 95), JM #255 (SEQ ID NO.: 150), JM #257 (SEQ ID NO.: 152) and JM #204 (SEQ ID NO.: 99). […] Shown are data from 2 individual mice measured in duplicates.
In vivo stability assay. 100 μl of a 700 μg/ml stock solution of the peptide in 0.9% NaCl was intravenously injected in the tail vein of C57BL/6NCrl (BL6) mice. 4 hours post injection, mice were killed by cervical dislocation. Mouse plasma was obtained by heart punctation. Blood was 19:1 diluted with 0.16 M NaEDTA and centrifuged at 2000×g for 20 min at 4° C. to obtain plasma. Plasma was stored at −80° C. till remaining peptide activity in the plasma was determined by 12G5 antibody competition assay.

[8] = molecular target: T2, CXC chemokine receptor type 4 (CXCR4) (human), P61073; experiment: cell-based or functional assay
T2 chain: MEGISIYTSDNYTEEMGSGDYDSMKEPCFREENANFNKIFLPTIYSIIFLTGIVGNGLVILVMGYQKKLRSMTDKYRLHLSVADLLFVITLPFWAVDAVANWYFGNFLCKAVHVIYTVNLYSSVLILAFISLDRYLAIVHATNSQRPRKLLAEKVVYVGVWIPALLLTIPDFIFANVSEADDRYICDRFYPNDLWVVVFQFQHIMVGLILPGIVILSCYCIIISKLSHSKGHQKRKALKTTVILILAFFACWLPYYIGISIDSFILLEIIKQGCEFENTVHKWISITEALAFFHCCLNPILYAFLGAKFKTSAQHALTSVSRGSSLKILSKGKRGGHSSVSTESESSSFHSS

[9] = molecular target: T2, CXC chemokine receptor type 4 (CXCR4) …; experiment: 12G5-APC antibody competition on SupT1 cells, flow cytometry
[10] = molecular target: T2, CXC chemokine receptor type 4 (CXCR4) …; experiment: competition; conditions: chains peptide; modification not given
[11] = molecular target: T3, CXC chemokine receptor type 4 (CXCR4) (human, UniProt P61073 1-352); experiment: cell-based or functional assay
[12] = molecular target: T4, CXC chemokine receptor type 4 (CXCR4) (human, UniProt P61073 1-352); experiment: competition
T4 chain: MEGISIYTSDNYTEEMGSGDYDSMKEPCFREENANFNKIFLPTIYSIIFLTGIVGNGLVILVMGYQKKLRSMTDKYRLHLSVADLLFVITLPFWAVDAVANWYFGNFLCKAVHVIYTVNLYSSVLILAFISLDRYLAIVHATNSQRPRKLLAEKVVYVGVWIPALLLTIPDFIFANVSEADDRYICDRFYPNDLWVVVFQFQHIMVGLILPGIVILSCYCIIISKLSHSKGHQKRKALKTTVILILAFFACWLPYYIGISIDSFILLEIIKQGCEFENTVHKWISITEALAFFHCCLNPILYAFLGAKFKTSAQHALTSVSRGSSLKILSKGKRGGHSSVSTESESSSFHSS

[13] = molecular target: T4, CXC chemokine receptor type 4 (CXCR4); experiment: competition
[14] = molecular target: T4, CXC chemokine receptor type 4 (CXCR4); experiment: competition
[15] = molecular target: T4, CXC chemokine receptor type 4 (CXCR4); experiment: 12G5 antibody competition
[16] = molecular target: T3, CXC chemokine receptor type 4 (CXCR4); experiment: 12G5-APC antibody competition on SupT1 cells, flow cytometry
Experimental: To the right of the diagrams, an assignment of the curves to the tested peptides is explained. […] Three independent experiments were carried out for each peptide in each assay. The error bars refer to the standard deviation.
Antibody competition assay. Competition of compounds with antibody binding was performed on SupT1 cells. For that cells were washed in PBS containing 1% FCS and 50,000 cells were then seeded per well in a 96 V-well plate. Buffer was removed and plates were precooled at 4° C. […] The antibody was used at a concentration closed to its determined Kd. 15 μl compounds were then added to the cells and 15 μl antibody immediately afterwards. Plates were incubated at 4° C. in the dark for 2 hours. Afterwards cells were washed twice with PBS containing 1% FCS and fixed with 2% PFA. Antibody binding was analyzed by flow cytometry (FACS CytoFLEX; Beckman Coulter®).

[17] = molecular target: T3, CXC chemokine receptor type 4 (CXCR4); experiment: antibody competition assay (FIG. 5)
[18] = molecular target: T4, CXC chemokine receptor type 4 (CXCR4); experiment: 12G5 antibody competition

**Q.** For “ILRWSRK(Glu-Ste)-NH2 (ILRWSRK([Glu-Stearoyl])-NH2) [JM #255]”, which “inhibition of cell migration” value [1] is on record?
**A.** Its value is “almost complete inhibition of cell migration”.

**Q.** And the “remaining activity in human S9 liver fractions after 8 hours” value [2]?
**A.** Its value is “more rapidly degraded compared to their N-terminally modified variants”.

**Q.** For “C-deferoxamine linked JM #122: JM #122 with deferoxamine conjugated via an additional C-terminal cysteine as (succinimido-propionyl-desferrioxamine) acetate (ILRWSRKLPSVS-{C(succinimido-propionyl-desferrioxamine)}; also: acetate salt)”, which “biodistribution by PET” value [3] is on record?
**A.** The value was “rapid (5 min post injection) absorption of the peptide by the kidneys and subsequent release into the bladder”.

**Q.** For CC[C@@H](C)[C@@H](N)C(=O)N[C@@H](CC(C)C)C(=O)N[C@@H](CCCNC(=N)N)C(=O)N[C@@H](Cc1c[nH]c2ccccc12)C(=O)N[C@@H](CO)C(=O)N[C@@H](CCCNC(=N)N)C(=O)N[C@@H](CCCCN)C(=O)N[C@@H](CCCCNC(=O)CN1CCN(CC(=O)O)CCN(CC(=O)O)CCN(CC(=O)O)CC1)C(N)=O [[^68Ga]Ga-DOTA-K-JM#173] [metal not drawn] (H-[dI]LRWSRKK(DOTA)-NH2), which “total body distribution, PET/CT” value [4] is on record?
**A.** The value was “no specific uptake in any organ in vivo”.

**Q.** With CC(C)C[C@H](NC(=O)[C@@H](NC(=O)[C@@H]1CCCN1C(=O)[C@@H](NC(=O)[C@H](CO)NC(=O)[C@@H](NC(=O)[C@H](CCC(N)=O)NC(=O)[C@@H]1CCCN1C(=O)[C@@H](NC(=O)[C@H](CCCCN)NC(=O)[C@H](CCCCN)NC(=O)[C@@H](NC(=O)[C@H](Cc1ccc(O)cc1)NC(=O)[C@H](CCCNC(=N)N)NC(=O)[C@@H](NC(=O)[C@@H](N)CC(C)C)C(C)C)[C@@H](C)O)C(C)C)C(C)C)[C@@H](C)O)[C@@H](C)O)C(=O)O [EPIX4] (H-LVRYTKKVPQVSTPTL-OH; N-terminus and C-terminus assumed) as the molecule, how does the IC50 [5] read?
**A.** Its IC50 is 1780 nM.

**Q.** What about the IC50 [6] of the same molecule?
**A.** Its IC50 is 1460 nM.

**Q.** For “ILRWSRK(Glu-Ste)LPCVS (ILRWSRK([Glu-Stearoyl])LPCVS) [JM #198]”, which “remaining activity in human S9 liver fractions after 8 hours” value [2] is on record?
**A.** Its value is “more stable than its palmitoylated counterpart JM #143”.

**Q.** And the “remaining activity in plasma in vivo 4 hours post injection” value ([7]; 4 h)?
**A.** The value was “remained completely active”.

**Q.** And the “remaining activity in plasma in vivo 8 hours post injection” value ([7]; 8 h)?
**A.** Its value is 33%.

**Q.** What about the “remaining activity in plasma in vivo after 24 hours” value ([7]; 24 h) of the same molecule?
**A.** The value was “completely eliminated”.

**Q.** For LVRYTKKVPQVSTPTL [EPI-X4], which IC50, X4-HIV-1 inhibition assay [8] is on record?
**A.** Its IC50, X4-HIV-1 inhibition assay is 8630 nM.

**Q.** What about the reduction of AKT phosphorylation at 10 µM [8] of the same molecule?
**A.** Its reduction of AKT phosphorylation at 10 µM is 40%.

**Q.** And the IC50 [9]?
**A.** Its IC50 is 2500 nM.

**Q.** And the IC50 [10]?
**A.** Its IC50 is 2140 nM.

**Q.** With ILRWSRKLPCVS [JM#21] as the molecule, how does the “fold effectiveness against WSC02, AKT signaling” value [11] read?
**A.** The value was ~10 fold.

**Q.** What about the “fold more effective X4-HIV-1 inhibition than EPI-X4” value [11] of the same molecule?
**A.** The value was ~100 fold.

**Q.** What about the IC50 [12] of the same molecule?
**A.** Its IC50 is 211 nM.

**Q.** And the IC50 [13]?
**A.** The IC50 was 358 nM.

**Q.** What about the IC50 [14] of the same molecule?
**A.** The IC50 was 147 nM.

**Q.** Which IC50 [15] does the source give for ILRWSRKK-NH2 (not fully specified (residue 8)) [JM#191] here?
**A.** The IC50 was 3 nM.

**Q.** What about the IC50 [16] of the same molecule?
**A.** Its IC50 is 1 nM.

**Q.** And the “fold more effective binding than EPI-X4” value [16]?
**A.** Its value is > 2000 fold.

**Q.** What about the “fold more effective than WSC02” value [16] of the same molecule?
**A.** Its value is ~300 fold.

B1: JM#206 (peptide)
peptide: ILRWSRKLPCVSK(DOTA)
notes: JM#21 with DOTA; also called DOTA-K-JM#21
**Q.** Does B1 bind [17]?
**A.** Result: binds

**Q.** And the IC50 [13]?
**A.** The IC50 was 206 nM.

B2: JM#207 (peptide)
peptide: ILRWSRKLPSVSK(DOTA)
notes: JM#122 with DOTA; also called DOTA-K-JM#122
**Q.** Does B2 bind [17]?
**A.** Result: binds

**Q.** And the IC50 [13]?
**A.** Its IC50 is 207 nM.

**Q.** For ILRWSRKLK([Glu-Palmitoyl])-NH2 [JM#193], which IC50 [15] is on record?
**A.** Its IC50 is 3 nM.

**Q.** For IVRWSKKVPCVS [WSC02], which “IC50, X4-HIV-1 inhibition assay” value [11] is on record?
**A.** Its value is 310 nM.

**Q.** And the IC50 [12]?
**A.** The IC50 was 254 nM.

**Q.** What about the IC50 [13] of the same molecule?
**A.** Its IC50 is 413 nM.

**Q.** What about the IC50 [14] of the same molecule?
**A.** The IC50 was 274 nM.

**Q.** And the IC50 [16]?
**A.** The IC50 was 350 nM.

**Q.** With ILRWSRKLP-NH2 [JM#114] as the molecule, how does the “IC50, HIV inhibition assay” value [11] read?
**A.** Its value is > 150 nM.

**Q.** What about the IC50 [18] of the same molecule?
**A.** Its IC50 is 232 nM.

**Q.** And the IC50 [15]?
**A.** The IC50 was 268 nM.
